40 sequences from the nanobody polyreactivity screen of Harvey et al. (2022) can be followed below.

The nature of this series: yeast display, Sf9 membrane polyspecificity reagent, FACS + sequencing; frameworks hold sequencing errors. A digest of the protocol:
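Polyreactivity labels are assigned by the sorting gate from which each nanobody was recovered. The gates were low and high (top ~1%), set on anti-HA fluorescence for expression and streptavidin fluorescence for reagent binding. Before sorting, galactose-induced (36–48 hours) yeast display cells were stained for 1 hour at 4 °C with 10% biotinylated, detergent-solubilized Sf9 membrane reagent.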
As for “QVQLVESGGGLVQAGGSLRLSCAASGRIFSDYAMGWYRQAPGKERELVAAISRSGTRTYYADSVKGRFTISRDNAKNTVYLQMNSLKPEDTAVYYCAAKTPYGRAGQEEDYWGQGTQVTVSS”, the “polyreactivity (PSR sort gate)” value was “high polyreactivity”.

Take “QVQLVESGGGLVQAGGSLRLSCAASGRIFSEYALGWYRQAPGKERELVAAITRRGGSTYYADSVKGRFTISRYNAKNTVYLQMNSLKPEDTAVYYCNALLTGGYQDSYPADYWGQGTQVTVSS”: the “polyreactivity (PSR sort gate)” value is listed as “high polyreactivity”.

As for “QVQLVESGGGLVQAGGSLRLSCAASGRIFSFNAMGWYRQAPGKERELVAAISWSTGSTFYADSVKGRFTISRDNAKNTVYLQMNSLKPEDTAVYYCATGFPHPKRNVNRRNYWGQGTQVTVSS”, the “polyreactivity (PSR sort gate)” value is “high polyreactivity”.

“QVQLVESGGGLVQAGGSLRLSCAASGRIFSFNAMGWYRQAPGKERELVAGITYGGNTYYADSVKGRFTISRDNAKNTVYLQMNSLKPEDTAVYYCAAVRGGRHDYWGQGTQVTVSS”: the “polyreactivity (PSR sort gate)” value is listed as “low polyreactivity”.

Consider “QVQLVESGGGLVQAGGSLRLSCAASGRIFSFSAMGWYRQAPGKERELVAAISYSGGRTYYADSGKGRFTISRDNAKNTVYLQMNSLKPDDTAVYDCNAGRVLRLAYNYWGQGTQVTVSS”, for which the “polyreactivity (PSR sort gate)” value is listed as “low polyreactivity”.

“QVQLVESGGGLVQAGGSLRLSCAASGRIFSFYTMGWSRQAPGKERELVAAISNVGGTDYADSVKGRFTISRDNAKNTVYLQMNSLKPEDTAVYYCHAAWGRYFRYRWYTNGLDYWGQGTQVTVSS”: the “polyreactivity (PSR sort gate)” value is on record as “low polyreactivity”.

“QVQLVESGGGLVQAGGSLRLSCAASGRIFSGNAMGWYRQAPGKERELVANITSSSNTNYADSVKGRFTISRDNAKNTVYLQMNSLKPEDTAVYYCAKSAHNGYSFYGYDYWGQGTQVTVSS”: the “polyreactivity (PSR sort gate)” value is reported as “low polyreactivity”.

Take “QVQLVESGGGLVQAGGSLRLSCAASGRIFSGNGMGWYRQAPGKEREFVAAIRFSSGSTYYADSVKGRFTISRDNAKNTVYLQMNSLKPEDTAVYYCARPSIPRRYDYWGQGTQVTVSS”: the “polyreactivity (PSR sort gate)” value is reported as “high polyreactivity”.

“QVQLVESGGGLVQAGGSLRLSCAASGRIFSGYAMGWDRQAPGKERELVAAISSTGGTYYADSVKGRFTISRDNAKNTVYLQMNSLKPEDTAVYYCAADTYGYQGSAGGHWGQGTQVTVSS”: the “polyreactivity (PSR sort gate)” value is “low polyreactivity”.

On to “QVQLVESGGGLVQAGGSLRLSCAASGRIFSGYAMGWYRQAPGKEMELVAAISNSGASTYYADSVKGRFTISRDNAKNTVYLQMNSLKPEDTAVYYCAASGRVYSSGYDYWGQGTQVTVSS”, for which the “polyreactivity (PSR sort gate)” value was “high polyreactivity”.

With “QVQLVESGGGLVQAGGSLRLSCAASGRIFSGYAMGWYRQAPGKERELVAAITSGASTNYADSVKGRFTISRDNAKNTVYLQMNSLKPEDTAVYYCNKKRTADYDYWGQGTQVTVSS”, the “polyreactivity (PSR sort gate)” value is reported as “low polyreactivity”.

Take “QVQLVESGGGLVQAGGSLRLSCAASGRIFSGYAMGWYRQAPGKESELVAAITSRSGSTYYADSVKARFTISRDNAKNTVYLQMNSLKPEDTAVYYCDAEYVRFYWYTSDYWGQGTQVTVSS”: the “polyreactivity (PSR sort gate)” value is recorded as “low polyreactivity”.

For “QVQLVESGGGLVQAGGSLRLSCAASGRIFSHYAMGWYRQAPGKERELVAAITWSGGRTYYADSVKGRFTISRDNAKNTVYLQMNSLKPEDTAVYYSAADREARYPVEYGYWGQGTQVTVSS”, the “polyreactivity (PSR sort gate)” value is given as “low polyreactivity”.

With “QVQLVESGGGLVQAGGSLRLSCAASGRIFSINVKGWYRHAPGKERELVAAISKRGGSTYYADSVKGRFTISRDNAKNTVYLQMNSLKPEDTAVYYCAARRHYTYGNGPSRGGQMDYWGQGTQVTVSS”, the “polyreactivity (PSR sort gate)” value is reported as “high polyreactivity”.

For the sequence “QVQLVESGGGLVQAGGSLRLSCAASGRIFSIYGMGWYRQAPGKERELVAVISGSVGITYYADSVKGRFTISRDNAKNTVYLQMNSLKPEDTAVYYSNAKVRRRKYDYWGQGTQVTVSS”, the “polyreactivity (PSR sort gate)” value is “high polyreactivity”.

Take “QVQLVESGGGLVQAGGSLRLSCAASGRIFSKNAMGWYRQAPGKERELVAAIDSSGDSTNYADSVKGRFTISRDNAKNTVYLQMNSLKTEDTAVYYCAATLGYRWSGFEYWGLGTQVTVSS”: the “polyreactivity (PSR sort gate)” value is “high polyreactivity”.

As for “QVQLVESGGGLVQAGGSLRLSCAASGRIFSKYAMGWYRQAPGKERELVASIRWRGDRTYYADSVKGRFTISRDNAKNTVYLQMNSLKTEDTAVYYCAADEPGYGVGYWTYPVVPYDYWGQGTQVTVSS”, the “polyreactivity (PSR sort gate)” value is “low polyreactivity”.

“QVQLVESGGGLVQAGGSLRLSCAASGRIFSLNAMGWYRQAPGKERELVAGIRKSGGSTYYADSVKGRFTISRDNAKNTVYLQMNSLKPEDTAVYYCAAQPALTYRFYYWGQGTQVTVSS”: the “polyreactivity (PSR sort gate)” value is on record as “high polyreactivity”.

For “QVQLVESGGGLVQAGGSLRLSCAASGRIFSLYAMGWYRPAPGKEMELVAAITGIGGSTYYADSVKGRFTISRDNAKNTVYLQMNSLKPDDTAVYYCAARYPATYPSMGYWGQGTQLTVSS”, the “polyreactivity (PSR sort gate)” value is listed as “low polyreactivity”.

Regarding “QVQLVESGGGLVQAGGSLRLSCAASGRIFSLYAMGWYRPAPGKERELVAAITWRGGGTYYADSVKGRITISRDNAKNTVFLQMNSLKPEDTAVYYCAAEVKHIFYGYWGQGTQVTVSS”, the “polyreactivity (PSR sort gate)” value was “high polyreactivity”.

On to “QVQLVESGGGLVQAGGSLRLSCAASGRIFSLYAMGWYRQAPGKDRELVAAISRGGSTYYADSVKGRFTISRDNAKNTVYLQMNSLKPEDTAVSYCARRYWYPDAFYRYDYWGQGTQVTVSS”, for which the “polyreactivity (PSR sort gate)” value is “low polyreactivity”.

With “QVQLVESGGGLVQAGGSLRLSCAASGRIFSNNAMGWYRQAPGKERELVAAITNSGGSTYYADSVKGRFTISRDNAKNTVYLQMNSLKPEDTAVYYCNARSKVAYYRHYYWGQGTQVTVSS”, the “polyreactivity (PSR sort gate)” value is reported as “low polyreactivity”.

Consider “QVQLVESGGGLVQAGGSLRLSCAASGRIFSPNAMGWSRQAPGKERELVAAITRGGSTNYADSVKGRFTISRDNAKYTVYLQMNSLKPEDTAVYFCAALLAKTISGRGYNSWGQGTQVTVSS”, for which the “polyreactivity (PSR sort gate)” value is listed as “low polyreactivity”.

As for “QVQLVESGGGLVQAGGSLRLSCAASGRIFSPYAMGWYRQAPGKERELVARISWRGSRTYYADSVKGRFTISRDNAKNTVYLQMNSLKPEDTAVYYCNAVFYRKPLRRDYWVQGTQVTVSS”, the “polyreactivity (PSR sort gate)” value is on record as “high polyreactivity”.

On to “QVQLVESGGGLVQAGGSLRLSCAASGRIFSQNTMGWYRQAPGKERELVATITTSDGSTSYADSVKGRFTISRDNAKNTVYLQMNSLKPEDTAVYYCNARLSKYEGYWVWQYDYWGQGTQVTVSS”, for which the “polyreactivity (PSR sort gate)” value is given as “low polyreactivity”.

With “QVQLVESGGGLVQAGGSLRLSCAASGRIFSRNAMGWYRQAPGKDRELVAAISRSGTSTYYADSGKGRFTISRDNAKNTVYLQMNSLKPEDTAVYYCAADSWSRSVNYYYWGQGTQVTVSS”, the “polyreactivity (PSR sort gate)” value was “low polyreactivity”.

Regarding “QVQLVESGGGLVQAGGSLRLSCAASGRIFSRNAMGWYRQAPGKERELVAAISRSGTRTNYADSVKGRFTISRDNAKYTVYLQMNSLKPEDTAVYYCATAAFIVGSSRTYDYWGQGTQVTVSS”, the “polyreactivity (PSR sort gate)” value is listed as “high polyreactivity”.

For “QVQLVESGGGLVQAGGSLRLSCAASGRIFSRNAMGWYRQAPRKEREFVAAISRRGTSTYYADSVKGRFTISRDNAKNTVYLQMHSLKPEDTAVYYCNAGGSPWYKPVYYRALYDYWGQGTQVTVSS”, the “polyreactivity (PSR sort gate)” value was “high polyreactivity”.

On to “QVQLVESGGGLVQAGGSLRLSCAASGRIFSRNARGWYRQATGKERELVAAITARSGTTFYADSVKGRFTISRDNAKNTVYLQMNSLKPEDTAVYYCAADGSPSLLDYWGQGTQVTVSS”, for which the “polyreactivity (PSR sort gate)” value is on record as “high polyreactivity”.

As for “QVQLVESGGGLVQAGGSLRLSCAASGRIFSRYAMGWYRQAPGKERELVAAINWSGGSTYYADSVKGRFTISRDNAKNTVYLQMNSLKPEDTAVYYCAADIYPLAIGAFRDDYWGQGTQVTVSS”, the “polyreactivity (PSR sort gate)” value is reported as “low polyreactivity”.

For “QVQLVESGGGLVQAGGSLRLSCAASGRIFSRYAMGWYRQAPGKERELVAAITSNGGSTYYADSVKGRFTISRDNAKNTVYLQMNSLKPEDTAVYYCAAKSYWLHYDYWGQGTQVTVSS”, the “polyreactivity (PSR sort gate)” value is reported as “high polyreactivity”.

As for “QVQLVESGGGLVQAGGSLRLSCAASGRIFSRYAMGWYRQAPGKERELVASIRSGGSTYYADSVKGRFTIARDNAKNTVYVQMNSLKPEDTAVYYCAKGTFDLHYRKRYNYWGQGTQVTVSS”, the “polyreactivity (PSR sort gate)” value is “low polyreactivity”.

Turning to “QVQLVESGGGLVQAGGSLRLSCAASGRIFSRYTMGCYRQAPGKERELVAAISSRGGSTYYADSVKGRFTISRDNAKNTVYLQMNSLKPEDTAVYYCNTPSYSGSSPYDHWGQGTQVTVSS”, the “polyreactivity (PSR sort gate)” value was “high polyreactivity”.

With “QVQLVESGGGLVQAGGSLRLSCAASGRIFSSYAMGWNRQAPGKERELVAAITDGDSTNYADSVKGRFTIARDNAKNTDYFQMNSLKPEDTAVYYCAVDILWYYPPGNYYYSSYDYWGQGTQVTVSS”, the “polyreactivity (PSR sort gate)” value is given as “low polyreactivity”.

With “QVQLVESGGGLVQAGGSLRLSCAASGRIFSTNAMGWYRQAPGKEREFVAAISWIGGSTYYADSVKGRFTISRDNAKNTVYLQMNSLKPEDTAVYYCAAGVYDDYPWSYDIFNLYDYWGQGTQVTVSS”, the “polyreactivity (PSR sort gate)” value is reported as “low polyreactivity”.

As to “QVQLVESGGGLVQAGGSLRLSCAASGRIFSVNGMGWYRQAPGKERELVAAITYNGGRTYYADSVKGRITISRDNAKNTVYLQMNSLKPEDTAVYYCAVESVRHPLDWYYYWGQGTQVTVSS”, the “polyreactivity (PSR sort gate)” value was “low polyreactivity”.

For “QVQLVESGGGLVQAGGSLRLSCAASGRIFSVYAMGWYRQAPGKEREFVAAITKGGVGTYYADSVKGRFTISRDNAKNTVYLQMNSLKPEDTAVYYCAARHYYGADRYYSWGQGTLVTVSS”, the “polyreactivity (PSR sort gate)” value is “high polyreactivity”.

With “QVQLVESGGGLVQAGGSLRLSCAASGRIFSVYAMGWYRQAPGKEREFVASISWRGGRTYYADSVKGRFTISRDNAKNTVYLQMNSLKPEDTAVYYCNAPQRYWPPYGYWGQGTQVTVSS”, the “polyreactivity (PSR sort gate)” value is “high polyreactivity”.

As to “QVQLVESGGGLVQAGGSLRLSCAASGRIFSVYAMGWYRQAPGKERELVAAITWTGGRTYYADSVKGRFTISRDNAKNTVYLQMNSLKPEDTAVYYCNKDWGRYRYDYWGQGTQVTVSS”, the “polyreactivity (PSR sort gate)” value is listed as “high polyreactivity”.

For the sequence “QVQLVESGGGLVQAGGSLRLSCAASGRIFSVYGMGWYRQAPGKDRELVAAISSSAGSTNYADSVKGRFTISRDNAKNTVYLQMNSLKPEDTAVYYCAAYYRRVVYYPTAYYIRKYDYWGQGTQVTVSS”, the “polyreactivity (PSR sort gate)” value is given as “high polyreactivity”.
